According to patent US20240116985A1 (published 2024):
Starred links: 1 amine or outer side, 2 acyl side, 3 side chain; linkers in the order of their positions; H or OH if unused. Positions of bridges follow the written chain, without caps; N, C: chain ends. Non-standard residues stand in square brackets, D forms with d. Primed or numbered codes have the meaning given here. PyrS2″ = (S)-3-amino-1-((pent-4-en-1-yloxy)carbonyl)pyrrolidine-3-carboxylic acid (stapling residue), C=CCCCOC(=O)N1CC[C@@](N[*:1])(C(=O)[*:2])C1; B5(4) = 2,2-bis(4-pentenyl)glycine = 2-amino-2-(pent-4-en-1-yl)hept-6-enoic acid (stitching residue), C=CCCCC(CCCC=C)(N[*:1])C(=O)[*:2]; B5(5) = 2,2-bis(4-pentenyl)glycine, 2-amino-2-(pent-4-en-1-yl)hept-6-enoic acid (stitching residue), C=CCCCC(CCCC=C)(N[*:1])C(=O)[*:2]; TfeGA = (S)-2-amino-3-((carboxymethyl)(2,2,2-trifluoroethyl)amino)propanoic acid, O=C([C@H](CN(CC(=O)[*:3])CC(F)(F)F)N[*:1])[*:2]; B5(12) = 2-amino-2-(pent-4-en-1-yl)hept-6-enoic acid (two olefin side chains), C=CCCCC(CCCC=C)(N[*:1])C(=O)[*:2]; Phe(3-COOH) = N[C@@H](Cc1cccc(C(=O)O)c1)C(=O)O; Bta = N[C@@H](Cc1csc2ccccc12)C(=O)O; Lys(iPr) = CC(C)NCCCC[C@H](N)C(=O)O; αAllylPro = C=CC[C@@]1(C(=O)O)CCCN1; tBuAla = CC(C)(C)C[C@H](N)C(=O)O; 3Thi = N[C@@H](Cc1ccsc1)C(=O)O; PyrS2(4) = not defined here; TfeGA″ = not defined here; Nle = CCCC[C@H](N)C(=O)O; Aib = CC(C)(N)C(=O)O

T1: B-cat-Halo (beta-catenin HaloTag construct transfected into HEK293 cells) (UniProt P35222 1-781)
T1 sequence (looked up): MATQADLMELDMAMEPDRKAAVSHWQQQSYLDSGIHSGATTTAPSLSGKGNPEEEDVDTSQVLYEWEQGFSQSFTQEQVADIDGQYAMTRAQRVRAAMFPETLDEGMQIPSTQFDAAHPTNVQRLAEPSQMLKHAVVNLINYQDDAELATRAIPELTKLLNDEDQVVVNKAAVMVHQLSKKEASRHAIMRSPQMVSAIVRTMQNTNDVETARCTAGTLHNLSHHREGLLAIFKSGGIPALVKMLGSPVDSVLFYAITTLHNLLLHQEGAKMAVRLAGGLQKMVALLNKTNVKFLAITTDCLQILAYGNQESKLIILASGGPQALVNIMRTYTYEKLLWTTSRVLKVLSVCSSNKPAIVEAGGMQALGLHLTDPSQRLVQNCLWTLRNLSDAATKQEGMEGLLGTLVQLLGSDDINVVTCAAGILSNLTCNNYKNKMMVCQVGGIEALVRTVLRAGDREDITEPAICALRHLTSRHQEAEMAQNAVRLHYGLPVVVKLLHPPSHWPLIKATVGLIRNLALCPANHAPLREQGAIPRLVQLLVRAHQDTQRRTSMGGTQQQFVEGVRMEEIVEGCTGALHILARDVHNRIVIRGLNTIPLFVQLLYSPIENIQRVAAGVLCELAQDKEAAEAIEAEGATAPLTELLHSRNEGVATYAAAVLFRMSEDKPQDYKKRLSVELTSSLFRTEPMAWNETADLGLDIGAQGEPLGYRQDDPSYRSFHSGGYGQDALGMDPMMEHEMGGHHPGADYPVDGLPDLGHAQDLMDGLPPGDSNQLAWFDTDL

T2: B-cat-Halo (UniProt P35222 1-781)
T2 sequence (looked up): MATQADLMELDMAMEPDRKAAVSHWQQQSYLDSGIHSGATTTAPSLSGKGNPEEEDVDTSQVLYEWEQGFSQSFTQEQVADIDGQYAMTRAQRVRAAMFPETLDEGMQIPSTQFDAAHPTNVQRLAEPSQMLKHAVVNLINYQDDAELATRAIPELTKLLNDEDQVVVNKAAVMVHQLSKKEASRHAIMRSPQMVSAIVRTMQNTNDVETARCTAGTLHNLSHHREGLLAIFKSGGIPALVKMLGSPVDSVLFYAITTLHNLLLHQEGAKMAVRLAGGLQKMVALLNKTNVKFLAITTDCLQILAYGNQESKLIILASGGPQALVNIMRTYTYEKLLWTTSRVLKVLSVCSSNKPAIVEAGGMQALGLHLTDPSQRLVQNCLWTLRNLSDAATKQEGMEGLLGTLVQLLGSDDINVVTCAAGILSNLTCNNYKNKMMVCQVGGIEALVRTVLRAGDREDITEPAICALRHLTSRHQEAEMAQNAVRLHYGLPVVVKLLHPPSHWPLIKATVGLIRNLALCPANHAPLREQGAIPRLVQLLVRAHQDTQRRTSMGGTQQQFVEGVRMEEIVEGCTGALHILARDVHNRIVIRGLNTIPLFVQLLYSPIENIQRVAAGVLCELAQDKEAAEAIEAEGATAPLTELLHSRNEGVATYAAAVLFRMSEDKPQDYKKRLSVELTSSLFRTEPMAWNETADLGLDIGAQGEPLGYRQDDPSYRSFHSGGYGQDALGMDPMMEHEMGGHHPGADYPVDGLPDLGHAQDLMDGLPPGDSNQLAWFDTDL


The binders below were run against T1, B-cat-Halo (beta-catenin HaloTag …) (assay: cell-based or functional assay).

Row | Binder | NanoBRET Abs IC50
1 | Ac-[αAllylPro]D[tBuAla][B5(12)]D[Phe(3-COOH)][Nle]AFL[PyrS2(4)][3Thi][Bta]F-NH2 (staple 1-4, 4-11; not fully specified; printed as Ac-PL3-Asp-Npg-B5-Asp-3COOHF-nLeu-Ala-Phe-Leu-PyrS2-3Thi-BztA-Phe-NH2; reading uncertain) [I-1913] | 17.5 µM
2 | Ac-[αAllylPro]D[tBuAla][B5(4)]D[Phe(3-COOH)][Lys(iPr)]AFL[PyrS2(4)][3Thi][Bta]A-NH2 (staple 1-4, 4-11; not fully specified; printed as Ac-PL3-Asp-Npg-B5-Asp-3COOHF-iPrLys-Ala-Phe-Leu-PyrS2-3Thi-BztA-Ala-NH2; reading uncertain) [I-1915] | 20.2 µM
3 | Ac-[αAllylPro]D[tBuAla][B5(12)]D[Phe(3-COOH)][Aib]AFL[PyrS2(4)][3Thi][Bta]F-NH2 (staple 1-4, 4-11; not fully specified; printed as Ac-PL3-Asp-Npg-B5-Asp-3COOHF-Aib-Ala-Phe-Leu-PyrS2-3Thi-BztA-Phe-NH2; reading uncertain) [I-1914] | 6.4 µM

What follows are binders tested against T2, B-cat-Halo (assay: cell-based or functional assay).

Row | Binder | NanoBRET Abs IC50
4 | Ac-[αAllylPro]D[tBuAla][B5(5)]D[TfeGA][Lys(iPr)]AFL[PyrS2″][3Thi][Bta]L-NH2 (staple 1-4, 4-11) [I-1759] | > 20 µM
5 | Ac-[αAllylPro]D[tBuAla][B5(5)]D[TfeGA″][Lys(iPr)]AFT[PyrS2(4)][3Thi][Bta]F-NH2 (staple 1-4, 4-11; not fully specified; reading uncertain) [I-1762] | > 20 µM
6 | Ac-[αAllylPro]D[tBuAla][B5(5)]D[TfeGA][Lys(iPr)]AFT[PyrS2″][3Thi][Bta]V-NH2 (staple 1-4, 4-11) [I-1764] | > 20 µM
7 | Ac-[αAllylPro]D[tBuAla][B5(5)]D[TfeGA][Lys(iPr)]AFL[PyrS2″][3Thi][Bta]V-NH2 (staple 1-4, 4-11) [I-1763] | > 20 µM
8 | Ac-[αAllylPro]D[tBuAla][B5(5)]D[TfeGA][Lys(iPr)]AFL[PyrS2″][3Thi][Bta]F-NH2 (staple 1-4, 4-11) [I-1761] | > 20 µM
9 | Ac-[αAllylPro]D[tBuAla][B5(5)]D[TfeGA][Lys(iPr)]AFT[PyrS2″][3Thi][Bta]V-NH2 (staple 1-4, 4-11; also: -CH=CH- in each staple reduced to -CH2-CH2-) [I-1770] | > 20 µM
10 | Ac-[αAllylPro]D[tBuAla][B5(5)]D[TfeGA][Lys(iPr)]AFT[PyrS2″][3Thi][Bta]F-NH2 (staple 1-4, 4-11; also: -CH=CH- in each staple reduced to -CH2-CH2-) [I-1768] | > 20 µM
11 | Ac-[αAllylPro]D[tBuAla][B5(5)]D[TfeGA][Lys(iPr)]AFT[PyrS2″][3Thi][Bta]L-NH2 (staple 1-4, 4-11) [I-1760] | > 20 µM
